For series [1], the target named is T1, TFAM (UniProt Q00059 43-246).
T1 sequence: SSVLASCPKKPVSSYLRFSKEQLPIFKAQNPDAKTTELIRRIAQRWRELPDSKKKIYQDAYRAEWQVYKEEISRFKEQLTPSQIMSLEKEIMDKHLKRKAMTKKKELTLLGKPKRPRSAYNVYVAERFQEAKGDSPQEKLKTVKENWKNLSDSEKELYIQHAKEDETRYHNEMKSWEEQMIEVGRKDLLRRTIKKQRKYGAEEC
Kind of series: fluorescence polarization; 350 mM NaCl; EMSA: 10 mM HEPES pH 8.0, 500 mM NaCl, 2 mM DTT, 130 ug/ml BSA, 5% glycerol, 100 nM DNA, 30 min on ice then 10 min RT; FP: 10 mM HEPES pH 8.0, 150-400 mM NaCl. As to conditions: protein: recombinant; tags: His-MBP N-terminal, removed by TEV; label: 5'-Cy3 on strand 1 (EMSA); 6-FAM (FP); blunt. Background: Fluorescence polarisation rises when a labelled molecule tumbles more slowly, as on binding a larger partner.

Series [2] deals with T1, TFAM. Kind of series: fluorescence polarization; 200 mM NaCl; EMSA: 10 mM HEPES pH 8.0, 500 mM NaCl, 2 mM DTT, 130 ug/ml BSA, 5% glycerol, 100 nM DNA, 30 min on ice then 10 min RT; FP: 10 mM HEPES pH 8.0, 150-400 mM NaCl. The conditions noted are these: protein: recombinant; tags: His-MBP N-terminal, removed by TEV; label: 5'-Cy3 on strand 1 (EMSA); 6-FAM (FP); blunt.
Series [3] addresses T1, TFAM. Kind of series: fluorescence polarization; 150 mM NaCl; EMSA: 10 mM HEPES pH 8.0, 500 mM NaCl, 2 mM DTT, 130 ug/ml BSA, 5% glycerol, 100 nM DNA, 30 min on ice then 10 min RT; FP: 10 mM HEPES pH 8.0, 150-400 mM NaCl. As to conditions: protein: recombinant; tags: His-MBP N-terminal, removed by TEV; label: 5'-Cy3 on strand 1 (EMSA); 6-FAM (FP); blunt.
Series [4] concerns the target T1, TFAM. Kind of series: fluorescence polarization; 250 mM NaCl; EMSA: 10 mM HEPES pH 8.0, 500 mM NaCl, 2 mM DTT, 130 ug/ml BSA, 5% glycerol, 100 nM DNA, 30 min on ice then 10 min RT; FP: 10 mM HEPES pH 8.0, 150-400 mM NaCl. The conditions noted are these: protein: recombinant; tags: His-MBP N-terminal, removed by TEV; label: 5'-Cy3 on strand 1 (EMSA); 6-FAM (FP); blunt.

Series [5] addresses T1, TFAM. Kind of series: fluorescence polarization; 300 mM NaCl; EMSA: 10 mM HEPES pH 8.0, 500 mM NaCl, 2 mM DTT, 130 ug/ml BSA, 5% glycerol, 100 nM DNA, 30 min on ice then 10 min RT; FP: 10 mM HEPES pH 8.0, 150-400 mM NaCl. The conditions noted are these: protein: recombinant; tags: His-MBP N-terminal, removed by TEV; label: 5'-Cy3 on strand 1 (EMSA); 6-FAM (FP); blunt.
Series [6] addresses T1, TFAM. In words: X-ray crystallography; 2.7 A; EMSA: 10 mM HEPES pH 8.0, 500 mM NaCl, 2 mM DTT, 130 ug/ml BSA, 5% glycerol, 100 nM DNA, 30 min on ice then 10 min RT; FP: 10 mM HEPES pH 8.0, 150-400 mM NaCl. As to conditions: protein: recombinant; tags: His-MBP N-terminal, removed by TEV. In general terms: Mobility shift assays separate free from complexed probe on a gel.
The target of series [7] is T1, TFAM. Kind of series: EMSA; 500 mM NaCl; apparent Kd; EMSA: 10 mM HEPES pH 8.0, 500 mM NaCl, 2 mM DTT, 130 ug/ml BSA, 5% glycerol, 100 nM DNA, 30 min on ice then 10 min RT; FP: 10 mM HEPES pH 8.0, 150-400 mM NaCl. The conditions noted are these: protein: recombinant; tags: His-MBP N-terminal, removed by TEV; label: 5'-Cy3 on strand 1 (EMSA); 6-FAM (FP); blunt.
For series [8], the target named is T1, TFAM. In words: X-ray crystallography; 2.84 A; one TFAM bridges two DNA molecules; EMSA: 10 mM HEPES pH 8.0, 500 mM NaCl, 2 mM DTT, 130 ug/ml BSA, 5% glycerol, 100 nM DNA, 30 min on ice then 10 min RT; FP: 10 mM HEPES pH 8.0, 150-400 mM NaCl. As to conditions: protein: recombinant; tags: His-MBP N-terminal, removed by TEV; 2 DNA molecules bridged per TFAM; ends stacked.

The target of series [9] is T1, TFAM. Kind of series: EcoRI cleavage protection; 10 mM MgCl2, 50 mM NaCl; EMSA: 10 mM HEPES pH 8.0, 500 mM NaCl, 2 mM DTT, 130 ug/ml BSA, 5% glycerol, 100 nM DNA, 30 min on ice then 10 min RT; FP: 10 mM HEPES pH 8.0, 150-400 mM NaCl. The conditions noted are these: protein: recombinant; tags: His-MBP N-terminal, removed by TEV; blunt.

B1: DNAAA (dsDNA)
DNA 1: AAAAAGAATCATTTGGATATATAGGTAT
DNA 2: ATACCTATATATCCAAATGATTCTTTTT
As for B1, the Kd turned out to be 3850 ± 425 nM with TFAM [1]; 79 ± 1.4 nM with TFAM [2]; 12 ± 1.5 nM with TFAM [3]; 287 ± 15.7 nM in the series with TFAM [4]; 877 ± 38.5 nM in the series with TFAM [5].

B2: LSP_B (dsDNA)
DNA 1: AATTGTCAGTGGGGGGTTGATT
DNA 2: AATCAACCCCCCACTGACAATT
Regarding B2, the binding result in the series with TFAM [6] is listed as “binds”.

B3: DNAGG (dsDNA)
DNA 1: AAAAAGAACCATTTGGATACATAGGTAT
DNA 2: ATACCTATGTATCCAAATGGTTCTTTTT
Regarding B3, the Kd in the series with TFAM [1] was found to be 5180 ± 502 nM; in the series with TFAM [2] it was 55.5 ± 6 nM; in the series with TFAM [3] it was 13.5 ± 0.1 nM; with TFAM [7], 86.1 ± 14.3 nM; with TFAM [4], 259 ± 48.2 nM; with TFAM [5] it was 1210 ± 113 nM.

B4: NS2 (dsDNA)
DNA 1: ATCGGAAAGATAATCGAGAATC
DNA 2: GATTCTCGATTATCTTTCCGAT
Consider B4, for which the binding result with TFAM [8] was “binds”.

B5: DNA2GG (dsDNA)
DNA 1: CTGAAGCCAGTTACCTTTGAAAAAAGAGTTGGTAGCTCTTGATCCAGGAATTCAACCACCGCTGGTAGCGGTGGTTTTTTTATTTGCAAGCAGCAGATTA
DNA 2: TAATCTGCTGCTTGCAAATAAAAAAACCACCGCTACCAGCGGTGGTTGAATTCCTGGATCAAGAGCTACCAACTCTTTTTTCAAAGGTAACTGGCTTCAG
As to B5, in the series with TFAM [9], the binding result was “binds”.
